“And” between values parts separate entries of the source, which are not always exact repeats. Identical values can stand only once.
B1: K99F: mutation to UGT enzyme of SEQ ID NO: 15 (protein)
chain: MARRTKNSSGMSLAERFWLTLSRSSLVVGRSCVEFEPETVPLLSTLRGKPITFLGLMPPLPEGRREDGEDATVRWLDAQPAKSVVYVALGSEVPLGVEFVHELALGLELAGTRFLWALRKPTGVSDADLLPAGFEERTRGRGVVATRWVPQMSILAHAAVGAFLTHCGWNSTIEGLMFGHPLIMLPITGDQGPNARLIEAKNAGLQVARNDGDGSFDREGVAAAIRAVAVEEESSKVFQEKAKKLQEIVADMACHERYIDGFIQQLRSYKDDSGYSSSYAAAAGMHVVICPWLAFGHLLPCLDLAQRLASRGHRVSFVSTPRNISRLPPVRPALAPLVAFVALPLPRVEGLPDGAESTNDVPHDRPDMVELHRRAFDGLAAPFSEFLGTACADWVIVDSFHHWAAAAALEHKVPCAMMFLGSAEMIASIADERLEHAETESPAAAGQGRPAAAPTFEVARMKLIR
B2: P442G: mutation to UGT enzyme of SEQ ID NO: 15 (protein)
chain: MARRTKNSSGMSLAERFWLTLSRSSLVVGRSCVEFEPETVPLLSTLRGKPITFLGLMPPLPEGRREDGEDATVRWLDAQPAKSVVYVALGSEVPLGVEKVHELALGLELAGTRFLWALRKPTGVSDADLLPAGFEERTRGRGVVATRWVPQMSILAHAAVGAFLTHCGWNSTIEGLMFGHPLIMLPITGDQGPNARLIEAKNAGLQVARNDGDGSFDREGVAAAIRAVAVEEESSKVFQEKAKKLQEIVADMACHERYIDGFIQQLRSYKDDSGYSSSYAAAAGMHVVICPWLAFGHLLPCLDLAQRLASRGHRVSFVSTPRNISRLPPVRPALAPLVAFVALPLPRVEGLPDGAESTNDVPHDRPDMVELHRRAFDGLAAPFSEFLGTACADWVIVDSFHHWAAAAALEHKVPCAMMFLGSAEMIASIADERLEHAETESGAAAGQGRPAAAPTFEVARMKLIR
B3: L205Y: mutation to UGT enzyme of SEQ ID NO: 15 (protein)
chain: MARRTKNSSGMSLAERFWLTLSRSSLVVGRSCVEFEPETVPLLSTLRGKPITFLGLMPPLPEGRREDGEDATVRWLDAQPAKSVVYVALGSEVPLGVEKVHELALGLELAGTRFLWALRKPTGVSDADLLPAGFEERTRGRGVVATRWVPQMSILAHAAVGAFLTHCGWNSTIEGLMFGHPLIMLPITGDQGPNARLIEAKNAGYQVARNDGDGSFDREGVAAAIRAVAVEEESSKVFQEKAKKLQEIVADMACHERYIDGFIQQLRSYKDDSGYSSSYAAAAGMHVVICPWLAFGHLLPCLDLAQRLASRGHRVSFVSTPRNISRLPPVRPALAPLVAFVALPLPRVEGLPDGAESTNDVPHDRPDMVELHRRAFDGLAAPFSEFLGTACADWVIVDSFHHWAAAAALEHKVPCAMMFLGSAEMIASIADERLEHAETESPAAAGQGRPAAAPTFEVARMKLIR
B4: A81G: mutation to UGT enzyme of SEQ ID NO: 15 (protein)
chain: MARRTKNSSGMSLAERFWLTLSRSSLVVGRSCVEFEPETVPLLSTLRGKPITFLGLMPPLPEGRREDGEDATVRWLDAQPGKSVVYVALGSEVPLGVEKVHELALGLELAGTRFLWALRKPTGVSDADLLPAGFEERTRGRGVVATRWVPQMSILAHAAVGAFLTHCGWNSTIEGLMFGHPLIMLPITGDQGPNARLIEAKNAGLQVARNDGDGSFDREGVAAAIRAVAVEEESSKVFQEKAKKLQEIVADMACHERYIDGFIQQLRSYKDDSGYSSSYAAAAGMHVVICPWLAFGHLLPCLDLAQRLASRGHRVSFVSTPRNISRLPPVRPALAPLVAFVALPLPRVEGLPDGAESTNDVPHDRPDMVELHRRAFDGLAAPFSEFLGTACADWVIVDSFHHWAAAAALEHKVPCAMMFLGSAEMIASIADERLEHAETESPAAAGQGRPAAAPTFEVARMKLIR
B5: A451R: mutation to UGT enzyme of SEQ ID NO: 15 (protein)
chain: MARRTKNSSGMSLAERFWLTLSRSSLVVGRSCVEFEPETVPLLSTLRGKPITFLGLMPPLPEGRREDGEDATVRWLDAQPAKSVVYVALGSEVPLGVEKVHELALGLELAGTRFLWALRKPTGVSDADLLPAGFEERTRGRGVVATRWVPQMSILAHAAVGAFLTHCGWNSTIEGLMFGHPLIMLPITGDQGPNARLIEAKNAGLQVARNDGDGSFDREGVAAAIRAVAVEEESSKVFQEKAKKLQEIVADMACHERYIDGFIQQLRSYKDDSGYSSSYAAAAGMHVVICPWLAFGHLLPCLDLAQRLASRGHRVSFVSTPRNISRLPPVRPALAPLVAFVALPLPRVEGLPDGAESTNDVPHDRPDMVELHRRAFDGLAAPFSEFLGTACADWVIVDSFHHWAAAAALEHKVPCAMMFLGSAEMIASIADERLEHAETESPAAAGQGRPRAAPTFEVARMKLIR
B6: G189Y: mutation to UGT enzyme of SEQ ID NO: 15 (protein)
chain: MARRTKNSSGMSLAERFWLTLSRSSLVVGRSCVEFEPETVPLLSTLRGKPITFLGLMPPLPEGRREDGEDATVRWLDAQPAKSVVYVALGSEVPLGVEKVHELALGLELAGTRFLWALRKPTGVSDADLLPAGFEERTRGRGVVATRWVPQMSILAHAAVGAFLTHCGWNSTIEGLMFGHPLIMLPITYDQGPNARLIEAKNAGLQVARNDGDGSFDREGVAAAIRAVAVEEESSKVFQEKAKKLQEIVADMACHERYIDGFIQQLRSYKDDSGYSSSYAAAAGMHVVICPWLAFGHLLPCLDLAQRLASRGHRVSFVSTPRNISRLPPVRPALAPLVAFVALPLPRVEGLPDGAESTNDVPHDRPDMVELHRRAFDGLAAPFSEFLGTACADWVIVDSFHHWAAAAALEHKVPCAMMFLGSAEMIASIADERLEHAETESPAAAGQGRPAAAPTFEVARMKLIR
B7: M425S: mutation to UGT enzyme of SEQ ID NO: 15 (protein)
chain: MARRTKNSSGMSLAERFWLTLSRSSLVVGRSCVEFEPETVPLLSTLRGKPITFLGLMPPLPEGRREDGEDATVRWLDAQPAKSVVYVALGSEVPLGVEKVHELALGLELAGTRFLWALRKPTGVSDADLLPAGFEERTRGRGVVATRWVPQMSILAHAAVGAFLTHCGWNSTIEGLMFGHPLIMLPITGDQGPNARLIEAKNAGLQVARNDGDGSFDREGVAAAIRAVAVEEESSKVFQEKAKKLQEIVADMACHERYIDGFIQQLRSYKDDSGYSSSYAAAAGMHVVICPWLAFGHLLPCLDLAQRLASRGHRVSFVSTPRNISRLPPVRPALAPLVAFVALPLPRVEGLPDGAESTNDVPHDRPDMVELHRRAFDGLAAPFSEFLGTACADWVIVDSFHHWAAAAALEHKVPCAMMFLGSAESIASIADERLEHAETESPAAAGQGRPAAAPTFEVARMKLIR
B8: S310T: mutation to UGT enzyme of SEQ ID NO: 15 (protein)
chain: MARRTKNSSGMSLAERFWLTLSRSSLVVGRSCVEFEPETVPLLSTLRGKPITFLGLMPPLPEGRREDGEDATVRWLDAQPAKSVVYVALGSEVPLGVEKVHELALGLELAGTRFLWALRKPTGVSDADLLPAGFEERTRGRGVVATRWVPQMSILAHAAVGAFLTHCGWNSTIEGLMFGHPLIMLPITGDQGPNARLIEAKNAGLQVARNDGDGSFDREGVAAAIRAVAVEEESSKVFQEKAKKLQEIVADMACHERYIDGFIQQLRSYKDDSGYSSSYAAAAGMHVVICPWLAFGHLLPCLDLAQRLATRGHRVSFVSTPRNISRLPPVRPALAPLVAFVALPLPRVEGLPDGAESTNDVPHDRPDMVELHRRAFDGLAAPFSEFLGTACADWVIVDSFHHWAAAAALEHKVPCAMMFLGSAEMIASIADERLEHAETESPAAAGQGRPAAAPTFEVARMKLIR
B9: A81K: mutation to UGT enzyme of SEQ ID NO: 15 (protein)
chain: MARRTKNSSGMSLAERFWLTLSRSSLVVGRSCVEFEPETVPLLSTLRGKPITFLGLMPPLPEGRREDGEDATVRWLDAQPKKSVVYVALGSEVPLGVEKVHELALGLELAGTRFLWALRKPTGVSDADLLPAGFEERTRGRGVVATRWVPQMSILAHAAVGAFLTHCGWNSTIEGLMFGHPLIMLPITGDQGPNARLIEAKNAGLQVARNDGDGSFDREGVAAAIRAVAVEEESSKVFQEKAKKLQEIVADMACHERYIDGFIQQLRSYKDDSGYSSSYAAAAGMHVVICPWLAFGHLLPCLDLAQRLASRGHRVSFVSTPRNISRLPPVRPALAPLVAFVALPLPRVEGLPDGAESTNDVPHDRPDMVELHRRAFDGLAAPFSEFLGTACADWVIVDSFHHWAAAAALEHKVPCAMMFLGSAEMIASIADERLEHAETESPAAAGQGRPAAAPTFEVARMKLIR
B10: K99E: mutation to UGT enzyme of SEQ ID NO: 15 (protein)
chain: MARRTKNSSGMSLAERFWLTLSRSSLVVGRSCVEFEPETVPLLSTLRGKPITFLGLMPPLPEGRREDGEDATVRWLDAQPAKSVVYVALGSEVPLGVEEVHELALGLELAGTRFLWALRKPTGVSDADLLPAGFEERTRGRGVVATRWVPQMSILAHAAVGAFLTHCGWNSTIEGLMFGHPLIMLPITGDQGPNARLIEAKNAGLQVARNDGDGSFDREGVAAAIRAVAVEEESSKVFQEKAKKLQEIVADMACHERYIDGFIQQLRSYKDDSGYSSSYAAAAGMHVVICPWLAFGHLLPCLDLAQRLASRGHRVSFVSTPRNISRLPPVRPALAPLVAFVALPLPRVEGLPDGAESTNDVPHDRPDMVELHRRAFDGLAAPFSEFLGTACADWVIVDSFHHWAAAAALEHKVPCAMMFLGSAEMIASIADERLEHAETESPAAAGQGRPAAAPTFEVARMKLIR

The molecules below were run on steviol glycoside (assay: steviol glycoside bioconversion by E. coli expressing individual mutations of UGT SEQ ID NO: 15). Conditions: fold improvement of % conversion vs parent UGT SEQ ID NO: 15; stevia leaf extract and glucose fed; 37° C., 48 hr.
Type: cell-based
Method: Fold improvement is with respect to % steviol glycoside conversion of the parent UGT enzyme of SEQ ID NO: 15. SEQ ID NO: 16 has the following mutations from SEQ ID NO: 15: M152A, S153A. Stevia leaf extract and glucose were fed to the bioconversion strains. Bioconversion took place at 37° C. for 48 hr. Data were quantified by reverse phase LC DAD to quantify conversion of steviol glycosides.
Fold improvement (FI) is with respect to % steviol glycoside conversion.

Point of comparison: B7, “FI % Stevioside −> rebE” value 1.03. Against it:
- B1 — higher, 1.08
- B2 — lower, 1.01
- B3 — the same, 1.03
- B4 — higher, 1.09
- B5 — lower, 0.99
- B6 — higher, 1.04
- B8 — higher, 1.04
- B10 — lower, 1.02

Point of comparison: B10, “FI % rebA −> rebD” value 1.03. Against it:
- B1 — higher, 1.08
- B2 — lower, 1.01
- B3 — higher, 1.04
- B4 — higher, 1.04
- B5 — lower, 1.02
- B6 — higher, 1.04
- B7 — lower, 1.02
- B8 — higher, 1.04

In the case of B9, the “FI % Stevioside −> rebE” value is reported as 1.02 and 1.01.

B9 was tested, and the “FI % rebA −> rebD” value was 1.04 and 1.02.
